{"source": "patent US20070134734", "key": {"[1]": {"target": "GST-fused eIF4B (GST gene fused to the N-terminus), cell-free synthesized (UniProt P23588)", "sequence (P23588 whole entry, the tested form may be a part)": "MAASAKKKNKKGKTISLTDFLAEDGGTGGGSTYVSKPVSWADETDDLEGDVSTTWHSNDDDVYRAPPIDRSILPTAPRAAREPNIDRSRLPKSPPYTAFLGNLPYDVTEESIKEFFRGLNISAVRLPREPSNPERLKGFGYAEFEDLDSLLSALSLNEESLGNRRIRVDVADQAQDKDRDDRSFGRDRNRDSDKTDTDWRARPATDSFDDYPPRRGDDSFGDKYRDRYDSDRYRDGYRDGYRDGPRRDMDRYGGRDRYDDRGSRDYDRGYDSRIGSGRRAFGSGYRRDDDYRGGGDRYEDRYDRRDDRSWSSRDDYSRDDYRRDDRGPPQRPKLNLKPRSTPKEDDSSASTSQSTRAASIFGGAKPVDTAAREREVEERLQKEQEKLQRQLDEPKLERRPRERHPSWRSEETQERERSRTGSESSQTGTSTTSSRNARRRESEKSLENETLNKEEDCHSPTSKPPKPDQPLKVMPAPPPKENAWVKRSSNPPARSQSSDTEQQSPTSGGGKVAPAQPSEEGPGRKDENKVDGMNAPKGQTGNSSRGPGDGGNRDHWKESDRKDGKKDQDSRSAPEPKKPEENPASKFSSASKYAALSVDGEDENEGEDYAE"}, "[2]": {"target": "GST-fused stress-induced phosphoprotein 1 (STIP1) (GST gene fused to the N-terminus), cell-free synthesized (UniProt P31948)"}}}
{"substance": "human CaMKIIδ protein (calmodulin kinase II delta), synthesized in a wheat embryo cell-free protein synthesis system", "values": [{"measurement": "in vitro phosphorylation assay ([γ-32P]ATP, GST-fused substrate on glutathione resin, SDS-PAGE autoradiography)", "setting": "[1]", "value": "there was reproduced the reaction in which GST-fused eIF4B and STIP1 were phosphorylated by CaMKIIδ"}, {"measurement": "in vitro phosphorylation assay ([γ-32P]ATP, GST-fused substrate on glutathione resin, SDS-PAGE autoradiography)", "setting": "[2]", "value": "there was reproduced the reaction in which GST-fused eIF4B and STIP1 were phosphorylated by CaMKIIδ"}]}
